Test system: ga20ox1 promoter
Test: Transcription assay, GUS reporter driven by ga20ox1 promoter in tobacco protoplasts
Format: cell-based, potato
From the text: The cauliflower mosaic virus (CaMV) 35S promoter in pBI221 (Clontech, Palo Alto, Calif.) was replaced by an enhancer fragment (-832 to -50) of the 35S promoter plus 980 bp of the ga20ox1 promoter to generate the pGAOP::β-glucuronidase (GUS) reporter construct. With this construct, the reporter GUS transcription level is augmented but its transcription may still be affected by the ga20ox1 promoter. A CaMV 35S promoter-driven luciferase (LUC) construct 35S-LUC (obtained from Dr. Takahashi, Dept. of Biological Sciences, Graduate School of Science, Univ. of Tokyo, Japan) was used as an internal control. Effector constructs were also generated by using pBI221 vector as a backbone, with the GUS gene replaced by the full-length cDNAs of either StBEL-05 or POTH1, downstream of the CaMV 35S promoter. Truncated cDNAs that encode the N-terminal protein-binding domains of StBEL-05 or POTH1 were used to generate the dominant negative constructs, StBEL5ΔC295 and POTH1ΔC122, respectively. The reporter construct with the mutated promoter was generated by site-directed PCR mutagenesis with oligos 5′-CTATTTGACTTC*ACACGGTTATTT-3′ (SEQ ID NO:23) and 5′-AAATAACCGTGTG*AAGTCAAATAG-3′ (SEQ ID NO:24).
Fully expanded leaves from three- to four-week-old tobacco plants were excised and placed in K3 basal media (Kao et al., “Nutritional Requirements for Growth of Vicia hajastana Cells and Protoplasts at a Very Low Density in Liquid Media,” Planta 126:105-110 (1975), which is hereby incorporated by reference in its entirety) supplemented with 0.4 M sucrose, 0.25% (w-v) cellulases (Karlan Research Products, Santa Rosa, CA), and 0.05% (w-v) macerases (Calbiochem, La Jolla, Calif.) and incubated for overnight at 28° C. After incubation, the liberated protoplasts were filtered through sterile cheesecloth into a Babcock bottle, and centrifuged for 10 minutes at 1000 rpm. Protoplasts were collected from the bottleneck area and washed once in K3 media with 0.4 M sucrose and resuspended in K3 media containing 0.4 M glucose to a final concentration of 4×10^6 protoplasts per milliliter. […]
Luciferase assays were performed by injecting 100-μL luciferase substrate (Promega, Madison, Wis.) into 20 μL of extract and measuring the emitted photons for 15 seconds in a TD-20 luminometer (Turner Designs, Sunnyvale, Calif.). […] A fluorescence multiwell plate reader, Fluoroskan II (MTX labs, Vienna, Va.), was used to measure GUS activity at 365 nm (excitation) and 455 nm (emission). Each sample was measured three times for both LUC and GUS activity. Relative GUS-LUC activity was calculated by dividing the ratio of GUS activity to LUC activity from different effectors with the ratio from reporter plasmid alone. Relative activities calculated from three transfection replications were presented as a mean±SE.

B1: StBEL-05 protein from pGEM11Z (in vitro transcription/translation) (other)
chain: MYYQGTSDNTNIQADHQQRHNHGNSNNNNIQTLYLMNPNNYMQGYTTSDTQQQQQLLFLNSSPAASNALCHANIQHAPLQQQHFVGVPLPAVSLHDQINHHGLLQRMWNNQDQSQQVIVPSSTGVSATSCGGITTDLASQLAFQRPIPTPQHRQQQQQQGGLSLSLSPQLQQQISFNNNISSSSPRTNNVTIRGTLDGSSSNMVLGSKYLKAAQELLDEVVNIVGKSIKGDDQKKDNSMNKESMPLASDVNTNSSGGGESSSRQKNEVAVELTTAQRQELQMKKAKLLAMLEEVEQRYRQYHHQMQIIVLSFEQVAGIGSAKSYTQLALHAISKQFRCLKDAIAEQVKATSKSLGEEEGLGGKIEGSRLKFVDHHLRQQRALQQIGMMQPNAWRPQRGLPERAVSVLRAWLFEHFLHPYPKDSDKIMLAKQTGLTRSQVSNWFINARVRLWKPMVEEMYLEEVKNQEQNSTNTSGDNKNKETNISAPNEEKHPIITSSLLQDGITTTQAEISTSTISTSPTAGASLHHAHNFSFLGSFNMDNTTTTVDHIENNAKKQRNDMHKFSPSSILSSVDMEAKARESSNKGFTNPLMAAYAMGDFGRFDPHDQQMTANFHGNNGVSLTLGLPPSENLAMPVSQQNYLSNDLGSRSEMGSHYNRMGYENIDFQSGNKRFPTQLLPDFVTGNLGT
notes: 35S-methionine labelled prey; also called p11Z-5
co-transfected effector, reporter alone = 100%
  relative GUS-LUC activity of the pGAOP::GUS reporter construct: decreased by more than half
Mutated ga20ox1 promoter
  repression of promoter activity, reporter with point mutation in the binding site: no detectable repression

— patent US7265263B1, “Potato transcription factors, methods of use thereof, and a method for enhancing tuber development” (Iowa State University Research Foundation, Inc., priority 2002, dated 2007)
